System: Fer (mouse);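 also: 11-residue human phosphosite peptides and single-mutation variants displayed on the E. coli surface, counted by deep sequencing, each peptide's frequency after selection divided by its frequency in the unselected input library; frequency after pTyr selection over input frequency; kinase dosed for 20-30% of maximal phosphorylation in three min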
Test: phosphorylation enrichment, bacterial display (enrichment ratio); higher = better substrate or ligand; peptides without Tyr show the background
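For SH2 binding enrichment of the phosphorylated peptide, bacterial display in this document: peptide library displayed on the E. coli surface as eCPX fusions, selected cells deep-sequenced, score is each peptide's frequency after selection divided by its frequency in the input.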

Row | Sequence | phosphorylation enrichment
1 | MIAIRYSHSRR [ACOXL_Y260_T255M] | 0.324
2 | RVDRDYVLKSA [HTATIP2_Y111] | 0.665
3 | PNATLYKMSSI [SERPINA7_Y40] | 0.397
4 | KGELRYMHSPV [ABCD1_Y281_R285P] | 0.315
5 | ARIVDYNIIGW [MYH7_Y588_G584R] | 0.406
6 | TEVIWYKGDEE | 0.393
7 | RRNEEYCLLDS [ITK_Y198] | 0.967
8 | DTDSSYCIPTA [GAB1_Y373] | 0.519
9 | DTYDPYLDIAL [USP36_Y268_V271I] | 0.721
10 | GLGGVYGGASG [KRT8_Y54_G53V] | 0.418
11 | EVKEAYMGNVL [ACAT1_Y90] | 0.528
12 | PGLRGYPGLSG [COL4A2_Y306] | 0.449
13 | LWQSIYNLEAE [TNNT2_Y251] | 0.544
14 | MTKEQYIKMNR [ARFGEF2_Y797] | 0.346
15 | SLIDMYSKVLD [OPA1_Y268_E270K] | 0.501
16 | EYGRRYGFSCQ [CCDC93_Y209_R213C] | 0.526
17 | FKWAVYCIIGR [NUP93_Y391_R388W_YF] | 1.02

Row | Sequence | phosphorylation enrichment
18 | DPHECYAKVFN [ALB_Y394_D399N] | 0.529
19 | ISRASYFRKGG [ALK_Y1282_Y1278S_YF] | 0.456
20 | ELTTCYRKKCC [CCBE1_Y70] | 0.393
21 | ELPEKYSQNIC [PKP2_Y626_Y631C] | 0.446
22 | DQVEQYKKELE [LMNA_Y259] | 0.534
23 | LGRKLYSIATP [ABHD12_Y345_A349T] | 0.698
24 | LNEWHYGGLTG [PGAM2_Y92_R90W] | 0.636
25 | KFDLMYAKLAF [TUBA1A_Y399_R402L] | 0.632
26 | KTNVSYFGALD [CACNB4_Y103_C104F] | 0.464
27 | ADDSYYTARSA [ZAP70_Y493] | 0.518
28 | RMDGTYACSFT [FLNB_Y704_YF] | 0.932
29 | LGGAMYYLEAD [PKHD1_Y452_E457D] | 0.664
30 | RRGMPYGGHGD [TGM1_Y312_R315H] | 0.582
31 | LARDMHDKEFF [MET_Y1230_Y1230H_YF] | 0.362
32 | NFRNTYVNANE [KCNH2_Y475_T473N] | 0.358
33 | GYYDLYGGEKF [PTPN11_Y66_D61G] | 3.13

Target: c-Src SH2
Test: SH2 binding enrichment of the phosphorylated peptide, bacterial display (enrichment ratio); higher = better substrate or ligand; peptides without Tyr show the background

Row | Sequence | SH2 binding enrichment
34 | MIAIRYSHSRR [ACOXL_Y260_T255M] | 0.56
35 | RVDRDYVLKSA [HTATIP2_Y111] | 0.418
36 | PNATLYKMSSI [SERPINA7_Y40] | 0.395
37 | KGELRYMHSPV [ABCD1_Y281_R285P] | 0.533
38 | ARIVDYNIIGW [MYH7_Y588_G584R] | 0.874
39 | TEVIWYKGDEE | 0.478
40 | RRNEEYCLLDS [ITK_Y198] | 0.836
41 | DTDSSYCIPTA [GAB1_Y373] | 0.741
42 | DTYDPYLDIAL [USP36_Y268_V271I] | 0.451
43 | GLGGVYGGASG [KRT8_Y54_G53V] | 0.385
44 | EVKEAYMGNVL [ACAT1_Y90] | 0.542
45 | PGLRGYPGLSG [COL4A2_Y306] | 0.383
46 | LWQSIYNLEAE [TNNT2_Y251] | 0.54
47 | MTKEQYIKMNR [ARFGEF2_Y797] | 0.454
48 | SLIDMYSKVLD [OPA1_Y268_E270K] | 1.6
49 | EYGRRYGFSCQ [CCDC93_Y209_R213C] | 0.418
50 | FKWAVYCIIGR [NUP93_Y391_R388W_YF] | 1.21

Row | Sequence | SH2 binding enrichment
51 | DPHECYAKVFN [ALB_Y394_D399N] | 1.4
52 | ISRASYFRKGG [ALK_Y1282_Y1278S_YF] | 0.45
53 | ELTTCYRKKCC [CCBE1_Y70] | 0.741
54 | ELPEKYSQNIC [PKP2_Y626_Y631C] | 0.493
55 | DQVEQYKKELE [LMNA_Y259] | 0.841
56 | LGRKLYSIATP [ABHD12_Y345_A349T] | 0.616
57 | LNEWHYGGLTG [PGAM2_Y92_R90W] | 0.682
58 | KFDLMYAKLAF [TUBA1A_Y399_R402L] | 1.73
59 | KTNVSYFGALD [CACNB4_Y103_C104F] | 0.443
60 | ADDSYYTARSA [ZAP70_Y493] | 0.401
61 | RMDGTYACSFT [FLNB_Y704_YF] | 0.557
62 | LGGAMYYLEAD [PKHD1_Y452_E457D] | 1.1
63 | RRGMPYGGHGD [TGM1_Y312_R315H] | 0.415
64 | LARDMHDKEFF [MET_Y1230_Y1230H_YF] | 0.423
65 | NFRNTYVNANE [KCNH2_Y475_T473N] | 2.64
66 | GYYDLYGGEKF [PTPN11_Y66_D61G] | 3.86

Target: SHP2-C SH2
Test: as above

Row | Sequence | SH2 binding enrichment
67 | MIAIRYSHSRR [ACOXL_Y260_T255M] | 0.652
68 | RVDRDYVLKSA [HTATIP2_Y111] | 0.653
69 | PNATLYKMSSI [SERPINA7_Y40] | 0.375
70 | KGELRYMHSPV [ABCD1_Y281_R285P] | 0.58
71 | ARIVDYNIIGW [MYH7_Y588_G584R] | 0.607
72 | TEVIWYKGDEE | 0.624
73 | RRNEEYCLLDS [ITK_Y198] | 0.54
74 | DTDSSYCIPTA [GAB1_Y373] | 0.854
75 | DTYDPYLDIAL [USP36_Y268_V271I] | 0.451
76 | GLGGVYGGASG [KRT8_Y54_G53V] | 0.709
77 | EVKEAYMGNVL [ACAT1_Y90] | 0.699
78 | PGLRGYPGLSG [COL4A2_Y306] | 0.698
79 | LWQSIYNLEAE [TNNT2_Y251] | 1.48
80 | MTKEQYIKMNR [ARFGEF2_Y797] | 0.672
81 | SLIDMYSKVLD [OPA1_Y268_E270K] | 0.737
82 | EYGRRYGFSCQ [CCDC93_Y209_R213C] | 0.492
83 | FKWAVYCIIGR [NUP93_Y391_R388W_YF] | 1.39

Row | Sequence | SH2 binding enrichment
84 | DPHECYAKVFN [ALB_Y394_D399N] | 1.81
85 | ISRASYFRKGG [ALK_Y1282_Y1278S_YF] | 0.484
86 | ELTTCYRKKCC [CCBE1_Y70] | 0.873
87 | ELPEKYSQNIC [PKP2_Y626_Y631C] | 0.703
88 | DQVEQYKKELE [LMNA_Y259] | 0.66
89 | LGRKLYSIATP [ABHD12_Y345_A349T] | 0.621
90 | LNEWHYGGLTG [PGAM2_Y92_R90W] | 1.29
91 | KFDLMYAKLAF [TUBA1A_Y399_R402L] | 7.45
92 | KTNVSYFGALD [CACNB4_Y103_C104F] | 0.63
93 | ADDSYYTARSA [ZAP70_Y493] | 0.448
94 | RMDGTYACSFT [FLNB_Y704_YF] | 0.619
95 | LGGAMYYLEAD [PKHD1_Y452_E457D] | 0.762
96 | RRGMPYGGHGD [TGM1_Y312_R315H] | 0.764
97 | LARDMHDKEFF [MET_Y1230_Y1230H_YF] | 0.668
98 | NFRNTYVNANE [KCNH2_Y475_T473N] | 1.55
99 | GYYDLYGGEKF [PTPN11_Y66_D61G] | 0.778

Target: Grb2 SH2 (UniProt P62993)
Test: as above

Grb2 SH2, sequence (P62993 whole entry, looked up): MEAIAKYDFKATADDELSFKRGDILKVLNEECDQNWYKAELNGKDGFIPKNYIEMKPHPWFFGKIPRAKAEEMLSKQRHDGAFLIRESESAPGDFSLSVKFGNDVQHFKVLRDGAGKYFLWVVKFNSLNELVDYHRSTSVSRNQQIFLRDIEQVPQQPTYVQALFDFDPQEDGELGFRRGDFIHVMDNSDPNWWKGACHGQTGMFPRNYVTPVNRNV

Row | Sequence | SH2 binding enrichment
100 | MIAIRYSHSRR [ACOXL_Y260_T255M] | 0.959
101 | RVDRDYVLKSA [HTATIP2_Y111] | 0.976
102 | PNATLYKMSSI [SERPINA7_Y40] | 0.85
103 | KGELRYMHSPV [ABCD1_Y281_R285P] | 0.931
104 | ARIVDYNIIGW [MYH7_Y588_G584R] | 0.735
105 | TEVIWYKGDEE | 0.484
106 | RRNEEYCLLDS [ITK_Y198] | 0.75
107 | DTDSSYCIPTA [GAB1_Y373] | 0.95
108 | DTYDPYLDIAL [USP36_Y268_V271I] | 0.781
109 | GLGGVYGGASG [KRT8_Y54_G53V] | 0.705
110 | EVKEAYMGNVL [ACAT1_Y90] | 0.881
111 | PGLRGYPGLSG [COL4A2_Y306] | 0.958
112 | LWQSIYNLEAE [TNNT2_Y251] | 1.09
113 | MTKEQYIKMNR [ARFGEF2_Y797] | 0.823
114 | SLIDMYSKVLD [OPA1_Y268_E270K] | 0.777
115 | EYGRRYGFSCQ [CCDC93_Y209_R213C] | 0.725
116 | FKWAVYCIIGR [NUP93_Y391_R388W_YF] | 1.98

Row | Sequence | SH2 binding enrichment
117 | DPHECYAKVFN [ALB_Y394_D399N] | 1.11
118 | ISRASYFRKGG [ALK_Y1282_Y1278S_YF] | 0.755
119 | ELTTCYRKKCC [CCBE1_Y70] | 1.02
120 | ELPEKYSQNIC [PKP2_Y626_Y631C] | 0.997
121 | DQVEQYKKELE [LMNA_Y259] | 0.956
122 | LGRKLYSIATP [ABHD12_Y345_A349T] | 1.11
123 | LNEWHYGGLTG [PGAM2_Y92_R90W] | 0.723
124 | KFDLMYAKLAF [TUBA1A_Y399_R402L] | 1.07
125 | KTNVSYFGALD [CACNB4_Y103_C104F] | 0.847
126 | ADDSYYTARSA [ZAP70_Y493] | 0.861
127 | RMDGTYACSFT [FLNB_Y704_YF] | 0.893
128 | LGGAMYYLEAD [PKHD1_Y452_E457D] | 0.83
129 | RRGMPYGGHGD [TGM1_Y312_R315H] | 0.97
130 | LARDMHDKEFF [MET_Y1230_Y1230H_YF] | 0.884
131 | NFRNTYVNANE [KCNH2_Y475_T473N] | 29.8
132 | GYYDLYGGEKF [PTPN11_Y66_D61G] | 0.939

Reference: the supplement of paper PMC10065799, “High-throughput profiling of sequence recognition by tyrosine kinases and SH2 domains using bacterial peptide display” (eLife, 2023)
